Test results reported in patent publication US20090149339A1 (published 2009).
Ends that are not written are not given here. * marks the point of attachment. Biotin = O=C1N[C@H]2[C@H](CS[C@H]2CCCCC(=O)*)N1

Legend:
[1] = molecular target: GST-PSD95 PDZ domain fusion protein (human post-synaptic density protein 95 AA387-724; PDZ domains 1-3 of 3) (human, UniProt P08515 1-218 = GST); assay: A and G assays
[2] = molecular target: T1, GST-NeDLG PDZ domain fusion protein (presynaptic protein sao102, neuroendocrine-dlg; PDZ domains 1-2 of 3) (UniProt P08515 1-218 = GST); assay: A and G assays
T1 construct: also called NeDLG1
T1 sequence (P08515 1-218, tags or fused parts left off): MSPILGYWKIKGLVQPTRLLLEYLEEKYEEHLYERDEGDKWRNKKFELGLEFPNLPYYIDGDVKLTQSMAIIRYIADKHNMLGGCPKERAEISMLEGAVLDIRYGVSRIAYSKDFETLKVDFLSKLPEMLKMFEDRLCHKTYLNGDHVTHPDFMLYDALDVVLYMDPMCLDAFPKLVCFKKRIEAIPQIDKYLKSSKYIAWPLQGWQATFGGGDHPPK

[3] = molecular target: T2, GST-RGS12 PDZ domain fusion protein (human regulator of G-protein signalling 12 AA35-103; PDZ domain 1 of 1) (human, UniProt P08515 1-218 = GST); assay: A assay
T2 construct: also called RSG12
T2 sequence (P08515 1-218, tags or fused parts left off): as above

[4] = molecular target: T3, GST-41.8 kD PDZ domain fusion protein (hypothetical 41.8 kD protein AA4-85; PDZ domain 1 of 1) (UniProt P08515 1-218 = GST); assay: A assay
T3 construct: also called hypoth
T3 sequence (P08515 1-218, tags or fused parts left off): as above

[5] = molecular target: T4, GST-DVL1 PDZ domain fusion protein (human dishevelled segment polarity protein homolog AA248-340); PDZ domain … (human, UniProt P08515 1-218 = GST); assay: A assay
T4 sequence (P08515 1-218, tags or fused parts left off): as above

[6] = molecular target: T5, GST-TAX2 PDZ domain fusion protein (human tax interaction protein 2 AA54-140; PDZ domain 1 of 1) (human, UniProt P08515 1-218 = GST); assay: A/G assays
T5 construct: also called TX 2
T5 sequence (P08515 1-218, tags or fused parts left off): as above

[7] = molecular target: GST-MINT3 PDZ domain fusion protein (human MINT3 AA11-52; PDZ domain 1 of 1) (human, UniProt P08515 1-218 = GST); assay: A/G assays
Chain of GST-MINT3 PDZ domain fusion protein (human MINT3 AA11-52; PDZ domain 1 of 1) (P08515 1-218, tags or fused parts left off): as above

[8] = molecular target: T6, GST-TAX43 PDZ domain fusion protein (human tax interaction protein 43 AA15-85; PDZ domain 1 of 1) (human, UniProt P08515 1-218 = GST); assay: A/G assays
T6 construct: also called TX 43
T6 sequence (P08515 1-218, tags or fused parts left off): as above

[9] = molecular target: GST-LIM PDZ domain fusion protein (Human LIM protein AA29-112; PDZ domain 1 of 1) (human, UniProt P08515 1-218 = GST); assay: A/G assays
[10] = molecular target: GST-NOS1 PDZ domain fusion protein (human neuronal nitric oxide synthase; PDZ domain 1 of 1) (human, UniProt P08515 1-218 = GST); assay: A/G assays
Chain of GST-NOS1 PDZ domain fusion protein (human neuronal nitric oxide synthase; PDZ domain 1 of 1) (P08515 1-218, tags or fused parts left off): as above

[11] = molecular target: T7, GST-TAX40 PDZ domain fusion protein (human tax interaction protein 40 AA35-137; PDZ domain 1 of 1) (human, UniProt P08515 1-218 = GST); assay: A/G assays
T7 construct: also called TX 40
T7 sequence (P08515 1-218, tags or fused parts left off): as above

[12] = molecular target: GST-PTN-4 PDZ domain fusion protein (protein-tyrosine phosphatase meg1 AA774-862; PDZ domain 1 of 1) (UniProt P08515 1-218 = GST); assay: A/G assays
Chain of GST-PTN-4 PDZ domain fusion protein (protein-tyrosine phosphatase meg1 AA774-862; PDZ domain 1 of 1) (P08515 1-218, tags or fused parts left off): as above

[13] = molecular target: GST-MPP1 PDZ domain fusion protein (55 Kd erythrocyte membrane protein AA101-186; PDZ domain 1 of 1) (UniProt P08515 1-218 = GST); assay: A/G assays
[14] = molecular target: T8, GST-CASK PDZ domain fusion protein (CASK AA495-584; PDZ domain 1 of 1) (mouse, UniProt P08515 1-218 = GST); assay: A/G assays
T8 construct: also called mCASK
T8 sequence (P08515 1-218, tags or fused parts left off): as above

[15] = molecular target: T9, GST-KIAA0303 PDZ domain fusion protein (KIAA0303 AA652-742; PDZ domain 1 of 1) (UniProt P08515 1-218 = GST); assay: A/G assays
T9 construct: also called K303

[16] = molecular target: T10, GST-KIAA0559 PDZ domain fusion protein (KIAA0559 AA766-870; PDZ1 of 1) (UniProt P08515 1-218 = GST); assay: A/G assays
T10 construct: also called K559
T10 sequence (P08515 1-218, tags or fused parts left off): as above

[17] = molecular target: GST-prIL16 PDZ domain fusion protein (putative interleukin 16 precursor AA170-383; PDZ domains 1-2 of 2) (UniProt P08515 1-218 = GST); assay: A/G assays
Chain of GST-prIL16 PDZ domain fusion protein (putative interleukin 16 precursor AA170-383; PDZ domains 1-2 of 2) (P08515 1-218, tags or fused parts left off): as above

[18] = molecular target: GST-AF6 PDZ domain fusion protein (af-6 protein AA985-1077; PDZ domain 1 of 1) (UniProt P08515 1-218 = GST); assay: A/G assays
Chain of GST-AF6 PDZ domain fusion protein (af-6 protein AA985-1077; PDZ domain 1 of 1) (P08515 1-218, tags or fused parts left off): as above

[19] = molecular target: T11, GST-SYN1a PDZ domain fusion protein (alpha1-syntrophin AA96-189; PDZ domain 1 of 1) (UniProt P08515 1-218 = GST); assay: A/G assays
T11 construct: also called SYN 1 alpha; SYNTR 1 alpha
T11 sequence (P08515 1-218, tags or fused parts left off): as above

[20] = molecular target: T12, GST-TAX33 PDZ domain fusion protein (tax interaction protein 33 AA73-162; PDZ domain 1 of 1) (UniProt P08515 1-218 = GST); assay: A/G assays
T12 construct: also called TX33
T12 sequence (P08515 1-218, tags or fused parts left off): as above

[21] = molecular target: T13, GST-MPP2 PDZ domain fusion protein (maguk p55 subfamily member 2 (DLG2) AA185-273; PDZ domain 1 of 1) (UniProt P08515 1-218 = GST); assay: A/G assays
T13 construct: also called MMP2
T13 sequence (P08515 1-218, tags or fused parts left off): as above

[22] = molecular target: T14, GST-KIAA0316 PDZ domain fusion protein (KIAA0316 AA197-284; PDZ domain 1 of 1) (UniProt P08515 1-218 = GST); assay: A/G assays
T14 construct: also called K316
T14 sequence (P08515 1-218, tags or fused parts left off): as above

[23] = molecular target: GST-LIMK2 PDZ domain fusion protein (human LIM domain kinase 2 AA185-275; PDZ domain 1 of 1) (human, UniProt P08515 1-218 = GST); assay: A/G assays
Chain of GST-LIMK2 PDZ domain fusion protein (human LIM domain kinase 2 AA185-275; PDZ domain 1 of 1) (P08515 1-218, tags or fused parts left off): as above

[24] = molecular target: T15, GST-CBP PDZ domain fusion protein (Cytohesin binding protein HE AA85-175; PDZ domain 1 of 1) (UniProt P08515 1-218 = GST); assay: A/G assays
T15 construct: also called Prot
T15 sequence (P08515 1-218, tags or fused parts left off): as above

[25] = molecular target: GST-TIAM1 PDZ domain fusion protein (T-lymphoma invasion and metastasis inducing protein 1 AA1001-1088); PDZ 1 … (UniProt P08515 1-218 = GST); assay: A/G assays
Chain of GST-TIAM1 PDZ domain fusion protein (T-lymphoma invasion and metastasis inducing protein 1 AA1001-1088); PDZ 1 … (P08515 1-218, tags or fused parts left off): as above

[26] = molecular target: T11, GST-SYN1a PDZ domain fusion protein …; assay: G assay
[27] = molecular target: T1, GST-NeDLG PDZ domain fusion protein …; assay: G assay
[28] = molecular target: T2, GST-RGS12 PDZ domain fusion protein …; assay: A/G assays
[29] = molecular target: T3, GST-41.8 kD PDZ domain fusion protein …; assay: A/G assays
[30] = molecular target: T4, GST-DVL1 PDZ domain fusion protein …; assay: A/G assays

Row | Binder | binding result [1] | binding result [6] | binding result [7] | binding result [8] | binding result [9] | binding result [10] | binding result [11] | binding result [12] | binding result [13] | binding result [14] | binding result [15] | binding result [16] | binding result [17] | binding result [18] | binding result [20] | binding result [21] | binding result [22] | binding result [23] | binding result [24] | binding result [25] | further results
1 | Biotin-TTNNNPNSAVNIKKIFTDV [KV1.3 C-terminal PL peptide AA33L, biotinylated] | binds | no binding | no binding | no binding | no binding | no binding | no binding | no binding | no binding | no binding | no binding | no binding | no binding | no binding | no binding | no binding | no binding | no binding | no binding | no binding | binding result [2]: binds; binding result [3]: binds; binding result [4]: binds; binding result [5]: binds; binding result [19]: no binding
2 | Biotin-LASKSAEEGKQIPDSLSTDL [DOCK2 C-terminal PL peptide AA40L, biotinylated] | binds | no binding | no binding | no binding | no binding | no binding | no binding | no binding | no binding | no binding | no binding | no binding | no binding | no binding | no binding | no binding | no binding | no binding | no binding | no binding | binding result [26]: binds; binding result [27]: binds; binding result [28]: no binding; binding result [29]: no binding; binding result [30]: no binding
